Experimental data: patent US12545899B2, “Luciferase enzymes for use with thermostable luciferins in bioluminescent assays” (Promega Corporation, priority 2018, dated 2026)
Changes are numbered by the printed parent chain. Names may count otherwise.

B1: C2242E1: SEQ ID NO: 42; H244W+T344A+I396K+S193A+N228D+L305F+S306P+I109V+C38R+F55I+V262A+I422V (protein)
chain: MADKNILYGPEPFYPLEDGTAGEQMFDALSRYAAIPGRIALTNAHTKENVLYEEILKLSCRLAESFKKYGLKQNDTIAVCSENSLQFFLPVIASLYLGIIVAPVNDKYVERELIHSLGIVKPRIVFCSKNTFQKVLNVKSKLKSIETIIILDLNEDLGGYQCLNNFISQNSDSNLDVKKFKPYSFNRDDQVAAIMFSSGTTGLPKGVMLTHKNIVARFSIAKDPTFGDAINPTSAILTVIPFHWGFGMMTTLGYFTCGFRVALMHTFEEKLFLQSLQDYKVESTLLVPTLMAFLAKSALVEKYDFPHLKEIASGGAPLSKEIGEMVKKRFKLNFVRQGYGLTEATSAVLITPKGDAKPGSTGKIVPLHAVKVVDPTTGKILGPNEPGELYFKGPMKMKGYYNNEEATKAIIDNDGWLRSGDVAYYDNDGHFYIVDRLKSLIKYKGYQVAPAEIEGILLQHPYIVDAGVTGIPDEAAGELPAAGVVVQTGKYLNEQIVQDYVASQVSTAKWLRGGVKFLDEIPKGSTGKIDRKVLRQMLEKHTNGHHHHHHHH
B2: C2158A3: SEQ ID NO: 45; H244W+T344A+I396K+S193A+N228D+L305F+S306P+I109V+Q487R (protein)
chain: B1 chain with R38C, I55F, A262V, V422I, Q487R
B3: C2240E2: SEQ ID NO: 40; H244W+T344A+I396K+S193A+N228D+L305F+S306P+I109V+I230F+V335G+I410M (protein)
chain: B1 chain with R38C, I55F, I230F, A262V, V335G, I410M, V422I
B4: MK0141: SEQ ID NO: 108; H244W+S193A+N228D+L305F+S306P+I109V+C38R+F55I+Y108F+A316W+Y339M+T342S+V348I+T284A (protein)
chain: B1 chain with Y108F, A262V, T284A, A316W, Y339M, T342S, A344T, V348I, K396I, V422I
B5: C2261D9: SEQ ID NO: 41; H244W+T344A+I396K+S193A+N228D+L305F+S306P+I109V+C38R+Y108F+T376I (protein)
chain: B1 chain with I55F, Y108F, A262V, T376I, V422I
B6: C2261D1: SEQ ID NO: 52; H244W+T344A+I396K+S193A+N228D+L305F+S306P+I109V+K121Q+V261A+V287I (protein)
chain: B1 chain with R38C, I55F, K121Q, V261A, A262V, V287I, V422I
B7: C2260B6: SEQ ID NO: 43; H244W+T344A+I396K+S193A+N228D+L305F+S306P+I109V+Y108F+V261A+N427D+F431V (protein)
chain: B1 chain with R38C, I55F, Y108F, V261A, A262V, V422I, N427D, F431V

Columns and labels:
[1] = Luminescence of ATG-3707 variants (second round epPCR) with CS0333; format: biochemical; settings: for Luminescence (RLU) BrightGlo / Normalized Luminescence BrightGlo: BrightGlo buffer; for Luminescence (RLU) BrightGlo / Luminescence (RLU) CellTiterGlo / Luminescence (RLU) Detection Reagent: 25° C., 3 min; for Normalized Luminescence BrightGlo / Normalized Luminescence CellTiterGlo / Normalized Luminescence Detection Reagent: normalized to ATG-3707; for Luminescence (RLU) CellTiterGlo / Normalized Luminescence CellTiterGlo: CellTiterGlo buffer; for Luminescence (RLU) Detection Reagent / Normalized Luminescence Detection Reagent: Detection Reagent buffer
Experimental: Reagent compositions included CS0333 diluted from 20 mM to 2 mM in reaction buffer with 2 mM ATP. […] Reactions were incubated at 25° C. for 3 min, and luminescence was read and then normalized to ATG-3707 activity tested in parallel.

[2] = Kinetic analysis of ATG-3707 variants with CS0333; format: biochemical
Experimental: Additionally, Table 5 (below) includes kinetic analysis of the ATG-3707 variants identified above. Reagent compositions included CS0333 serially diluted 10-fold from 1 mM to 10 fM in reaction buffer with 2 mM ATP. […] Reactions were incubated at 25° C. for 3 min, and luminescence was read and then normalized to ATG-3707 activity tested in parallel. […] Since C2157D2 was selected for improved brightness in CellTiterGlo® buffer over ATG-3707, it still had beneficial properties.

[3] = Brightness of additional luciferase enzyme variants with CS0333; format: biochemical; settings: Table 7A, 1 mM CS0333; for Fold-improvement over ATG3707, CS0333 BG: Bright-Glo buffer; for Fold-improvement over ATG3707, CS0333 DR: Detection Reagent buffer
Experimental: (§1) Additional luciferase enzyme variants were generated and evaluated for their stability and activity. To evaluate the additional luciferase enzyme variants, 0.005 mg/ml luciferase enzyme variant was mixed with 1 mM ATP+1 mM substrate in either Bright-Glo™ (BG) or Detection Reagent (DR) buffers. […] (Table 7A is colored according to their relative luminescence values within each column across a red to green color spectrum with the lowest values colored red and the highest values colored green.)

[4] = Brightness of additional luciferase enzyme variants with CS0280; format: biochemical; settings: Table 7A, 1 mM CS0280; for Fold-improvement over ATG3707, CS0280 BG: Bright-Glo buffer; for Fold-improvement over ATG3707, CS0280 DR: Detection Reagent buffer
Experimental: as §1

[5] = Differential scanning fluorimetry (DSF) analysis; format: physicochemical; parameters: key to DSF Tm: melting temperature in °C (heated 30-95 °C at 1 °C/min); settings: for DSF Tm: Table 7A
Experimental: To conduct the experiment, Sypro Orange (5000×) was diluted in water to 3× and combined with enzymes stored in 50 mM HEPES pH 7.5, 100 mM NaCl, 2 mM EDTA to a final concentration of 5×. Fluorescence was read at 60 second intervals as the reactions were heated at 1° C. per minute from 30-95° C. The change in fluorescence at each minute was calculated and plotted for each temperature in the range.
The luciferase enzyme variants generated were also evaluated using DSF analysis as shown in the representative results provided in Tables 7A and 7B above. To conduct the experiments, Sypro Orange (5000×) was diluted in water to 3× and combined with enzymes stored in 20 mM HEPES pH 7.5, 200 mM NaCl, 1 mM EDTA to a final concentration of 5×. Fluorescence was read at 60 second intervals as the reactions were heated at 1° C. per minute from 30-95° C. The change in fluorescence at each minute was calculated and plotted for each temperature in the range.

[6] = Kinetic analysis of thermostable variants with 400 fM-4 mM CS0280 (Table 12); format: biochemical; settings: 4 mM ATP
Experimental: Table 12 includes representative results of kinetic analysis of the thermostable variants with 400 fM-4 mM CS0280. This panel of enzyme variants have a combination of improved thermostability and brightness with CS0280 relative to their progenitor enzyme variants MK134 and MK137.

| Molecule | Luminescence (RLU) BrightGlo [1] [RLU] | Normalized Luminescence BrightGlo [1] | Luminescence (RLU) CellTiterGlo [1] [RLU] | Normalized Luminescence CellTiterGlo [1] | Luminescence (RLU) Detection Reagent [1] [RLU] | Normalized Luminescence Detection Reagent [1] | Km ([2]; BrightGlo) [µM] | Vmax (RLU) ([2]; BrightGlo) | Km ([2]; Detection Reagent) [µM] | Vmax (RLU) ([2]; Detection Reagent) | Fold-improvement over ATG3707, CS0333 BG [3] | Fold-improvement over ATG3707, CS0333 DR [3] | Fold-improvement over ATG3707, CS0280 BG [4] | Fold-improvement over ATG3707, CS0280 DR [4] | DSF Tm [5] | DSF Tm (° C.) ([5]; Table 12) [°C] | Km ([6]; BrightGlo Buffer) [µM] | Vmax (RLU) ([6]; BrightGlo Buffer) | Km ([6]; Detection Reagent Buffer) [µM] | Vmax (RLU) ([6]; Detection Reagent Buffer) |
| --- | --- | --- | --- | --- | --- | --- | --- | --- | --- | --- | --- | --- | --- | --- | --- | --- | --- | --- | --- | --- |
| B1 | 5643850 | 1.45 | 708509 | 1.10 | 6604720 | 1.28 | 5.81 | 7,021,077 RLU | 109 | 5,366,355 RLU | 1.75 | 1.63 | 1.25 | 1.56 | 54 |  |  |  |  |  |
| B2 | 3392960 | 0.87 | 1027180 | 1.59 | 6034440 | 1.17 | 5.15 | 4,009,543 RLU | 101 | 3,944,016 RLU | 0.92 | 1.15 | 1.30 | 1.49 | 61 |  |  |  |  |  |
| B3 | 3202900 | 0.82 | 976519 | 1.51 | 6978270 | 1.35 | 3.97 | 5,559,638 RLU | 88.7 | 5,831,602 RLU | 1.26 | 1.21 | 1.24 | 1.39 | 49 |  |  |  |  |  |
| B4 |  |  |  |  |  |  |  |  |  |  |  |  |  |  |  | 73 | 7.12 | 1,701,019 RLU | 40.6 | 89,238 RLU |
| B5 | 4380280 | 1.13 | 628712 | 0.98 | 6890380 | 1.34 | 7.46 | 6,903,348 RLU | 117 | 6,756,516 RLU | 1.10 | 1.43 | 1.39 | 1.89 | 61 |  |  |  |  |  |
| B6 | 3436380 | 0.88 | 841889 | 1.31 | 4820920 | 0.93 | 5.92 | 4,702,332 RLU | 79.8 | 4,103,451 RLU | 1.27 | 1.24 | 2.02 | 2.41 | 54 |  |  |  |  |  |
| B7 | 2896240 | 0.74 | 921045 | 1.43 | 6230440 | 1.21 | 4.06 | 4,439,047 RLU | 68.2 | 4,995,834 RLU | 0.70 | 1.00 | 0.82 | 0.97 | 55 |  |  |  |  |  |
